Measurements from PMC6886185.

Target: eIF4A1 (UniProt P60842)
Experiment: fluorescence anisotropy
Details: 20 mM Hepes/KOH pH 7.5, 100 (mM) KCl, 1 mM MgCl2, 1 mM AMP-PNP, 1 mM TCEP, 0.1% DMSO, +/-50 uM silvestrol (10 uM in Fig 4a legend), 60 min, 25 C; numeric Kd of …

Sequence of eIF4A1 (P60842 whole entry): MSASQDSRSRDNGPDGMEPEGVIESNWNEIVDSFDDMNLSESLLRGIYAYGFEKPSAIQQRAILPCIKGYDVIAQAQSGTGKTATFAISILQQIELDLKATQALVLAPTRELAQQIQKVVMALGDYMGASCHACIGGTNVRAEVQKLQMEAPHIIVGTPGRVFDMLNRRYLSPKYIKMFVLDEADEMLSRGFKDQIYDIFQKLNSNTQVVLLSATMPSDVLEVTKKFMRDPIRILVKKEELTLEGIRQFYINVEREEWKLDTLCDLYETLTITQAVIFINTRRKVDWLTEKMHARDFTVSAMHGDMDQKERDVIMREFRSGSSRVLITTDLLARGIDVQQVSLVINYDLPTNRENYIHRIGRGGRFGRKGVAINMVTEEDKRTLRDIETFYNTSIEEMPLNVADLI

AGAGAGAGAGAGAGAGAGAG [(AG)10 ssRNA] gave a Kd of 0.0033 mM.
